Positions count from the first letter of the chain named.
B1: M132 (VHH)
VHH: QVQLVESGGGLVQAGGSLSLSCVASGDAFSFDAMGWYRQFSGKVNERQLVVATSRDGRTAYGERVKGRFTASRDNSKNTLSLVMNNLQVEDTAIYYCAAGDDPKDYYWGQGTQVTVSS
notes: Nanoantibody in TG1 supernatant in the screening ELISA; also called clone M132
B2: M050 (VHH)
VHH: EVQLQESGGGLVQAGGSLRLSCAASGAVSSINAMGWYRQTPEKVRKLVATMGSGGNTYYADSVKGRFTISRDYAKNTVALQMNNLIPEDTAVYYCAADKFGADIHEVDYWGKGTLVTVSS
notes: Nanoantibody in TG1 supernatant in the screening ELISA; also called clone M050
B3: M182 (VHH)
VHH: QVQLVESGGGSVQAGGSLTLSCAASGAVSSINAMGWYRQTPEKVRQLVATMGSGGNTYYAASVKGRFTISRDYAKNTVALQMNHLLPEDTAVYYCAADRFGADIREVDYWGKGTQVTVSS
notes: Nanoantibody in TG1 supernatant in the screening ELISA; also called clone M182
B4: M032 (VHH)
VHH: EVQLVESGGGSVQAGGSLKISCAASGSVIDIGAMGWYRHITEKERKLVATINAGGNTYYADSVKGRFTISRDNAKYTVYLQMNSLKPEDTAMYYCAAEDINYTGTEAYYWGQGTQVTVSS
notes: Nanoantibody in TG1 supernatant in the screening ELISA; also called clone M032
B5: M010 (VHH)
VHH: QVQLVESGGGLVQAGGSLRLSCAASGSVSSINAMGWYRQGTGEVRKLVATMGSGGNTYYADSVKGRFFITRDYSKNTVSLQMNNLTPEDSATYYCAADRFGASIHEVDYWGKGTLVTVSS
notes: Nanoantibody in TG1 supernatant in the screening ELISA; also called clone M010
B6: M044 (VHH)
VHH: QVQVVESGGGFVQAGGSLRLSCAASTPIISIAYMGWYRQISEKERQLVATINSGGKTYYADSVKGRFTISRDNAKNTLYLQMNMLKPEDTGMYYCAASNKDYNDYDPDWGQGTQVTVSS
notes: Nanoantibody in TG1 supernatant in the screening ELISA; also called clone M044; M044 antibody
B7: M001 (VHH)
VHH: EVQLVESGGGLVQAGGSLRLSCAASGSIFNINAMGWYRQAPGKEWERELVATISSSNSDNTYYKDSVKGRFTISTNTAKNTWYLQMNSLKPEDTAMYYCAAENYDRKDRYWGQGTQVTVSS
notes: Nanoantibody in TG1 supernatant in the screening ELISA; also called clone M001
B8: M003 (VHH)
VHH: B7 VHH with E1Q, A23T, S27N, N30S, A40P, S56T, D65E, Y104F, G112A
notes: Nanoantibody in TG1 supernatant in the screening ELISA; also called clone M003
B9: M005 (VHH)
VHH: EVQLVESGGGWVQSGGSLRLACAASGSSFGLNVVGWYRQAPDKQRELVASIGNGGRTTDYADSVKGRFTISSDNAKNTVFLQMNDLKPEDTAVYYCHLRASVTKGYWGQGTQVTVSS
notes: Nanoantibody in TG1 supernatant in the screening ELISA; also called clone M005
B10: M126 (VHH)
VHH: B9 VHH with S27D, Q39L, V93M, A100V, K104E
notes: Nanoantibody in TG1 supernatant in the screening ELISA; also called clone M126
B11: M047 (VHH)
VHH: QVQLVETGGGSVQAGGSLRLSCAASGSIASIDAMGWYRQVPGKEWERELVATISSSNSDNKYYKDSVKGRFTISTNIAKNTWYLQMNNLKPEDTAMYYCAAEDYDTKDRFWGQGTQVTVSS
notes: Nanoantibody in TG1 supernatant in the screening ELISA; also called clone M047
B12: M129 (VHH)
VHH: QVQLVESGGGSAQAGGSLILSCVASANLFTIDALGWYRQAPGPKRELVAAISSGGNKYYADAVKGRFTISRDTLTKTMWLQMNNLKPEDTAMYYCAAEDYGLGQRSWGMGTQVTVSS
notes: Nanoantibody in TG1 supernatant in the screening ELISA; also called clone M129
B13: M119 (VHH)
VHH: EVQLVESGGGLVQPGGSLRLSCVASGSDLSFDAMGWYRQFSATVRERQLVVATSRDGRIYYGDSVKGRFTASRDNLKNSVDLEMNNLKPEDTAIYYCAAGDDPKNYDWGPGTQVTVSS
notes: Nanoantibody in TG1 supernatant in the screening ELISA; also called clone M119
B14: M012 (VHH)
VHH: QVQLVESGGDLVQTGGSLRLSCVVSGSTFAINAMGWYRQAPGKERELVAAISSGGDSTHYADDVKGRFTISRDNAENTMYLQMKSLKPEDTAVYVCNARGCRDFHNPQALCVLRDYWGQGTQVTVSS
notes: Nanoantibody in TG1 supernatant in the screening ELISA; also called clone M012
B15: M118 (VHH)
VHH: EVQLVESGGGLVQAGGSLTLSCAASEHTFTIDAMGYYRQIPGRRNERQLVAAAGRTGTTYYNDAVKDRFTIYRDTSKETIILQMNNLRPEDTTMYYCAVERYSDQSRFFGPGTQVTVSS
notes: Nanoantibody in TG1 supernatant in the screening ELISA; also called clone M118
B16: M2339-z11-1 (antibody, IgG4, V domains shown)
VH: EVQLVASGGGLVQPGGSLRLSCALSGFTLRELDEFAIGWFRQAPGKEREGVSCISGTGGITHYADSVKGRFTISRDNSKTTVYLQMNSLRAEDTAVYYCAADERCTDRLIRPPTYWGQGTQVTVSS
notes: Humanized variant of M2339
B17: M2339-z11-8 (antibody, IgG4, V domains shown)
VH: B16 VH with E1Q, V2L, V5G, A6E, N77I, S78A, R90N, A91S
notes: Humanized variant of M2339
B18: M2339-z11-9 (antibody, IgG4, V domains shown)
VH: B16 VH with E1Q, V2L, N77I, S78A, R90N, A91S
notes: Humanized variant of M2339
B19: M2339-z11-2 (antibody, IgG4, V domains shown)
VH: B16 VH with E1Q
notes: Humanized variant of M2339
B20: M2339-z11-12 (antibody, IgG4, V domains shown)
VH: B16 VH with V5G, N77I, S78A, R90N, A91S
notes: Humanized variant of M2339
B21: M2339-z11-5 (antibody, IgG4, V domains shown)
VH: B16 VH with R90N
notes: Humanized variant of M2339
B22: M2339-z11-3 (antibody, IgG4, V domains shown)
VH: B16 VH with V2L
notes: Humanized variant of M2339
B23: M2339-z11-4 (antibody, IgG4, V domains shown)
VH: B16 VH with V5G
notes: Humanized variant of M2339
B24: M2339-z11-14 (antibody, IgG4, V domains shown)
VH: B16 VH with E1Q, V2L, V5G, N77I, S78A, T80N, R90N, A91S
notes: Humanized variant of M2339
B25: M2339-z11-13 (antibody, IgG4, V domains shown)
VH: B16 VH with E1Q, V2L, V5G, R90N, A91S
notes: Humanized variant of M2339
B26: M2339-z11-16 (antibody, IgG4, V domains shown)
VH: B16 VH with E1Q, V2L, V5G, N77I, S78A
notes: Humanized variant of M2339
B27: M2339-z11-6 (antibody, IgG4, V domains shown)
VH: B16 VH with A91S
notes: Humanized variant of M2339
B28: M2339-z11-15 (antibody, IgG4, V domains shown)
VH: B16 VH with E1Q, V2L, V5G, N77I, S78A, V82L, R90N, A91S
notes: Humanized variant of M2339
B29: M2339-z11-11 (antibody, IgG4, V domains shown)
VH: B16 VH with E1Q, V2L, V5G, L24A, N77I, S78A, R90N, A91S
notes: Humanized variant of M2339
B30: M2339-z11-7 (antibody, IgG4, V domains shown)
VH: B16 VH with V2L, V5G
notes: Humanized variant of M2339
B31: M2339-z11-10 (antibody, IgG4, V domains shown)
VH: B16 VH with E1Q, V2L, A6E, N77I, S78A, R90N, A91S
notes: Humanized variant of M2339
B32: M2339-z11-17 (antibody, IgG4, V domains shown)
VH: B16 VH with V2L, V5G, T80N, V82L
notes: Humanized variant of M2339

target: T1, MSLN.Fc protein (human, UniProt Q13421 296-598, limits assumed); assay: ELISA, antigen coated, TG1 supernatant
T1 construct: also called MSLN·hFc; MSLN protein; not shown: human IgG Fc fragment
T1 sequence (Q13421 other isoform, or with tags, fused parts or gaps limits assumed): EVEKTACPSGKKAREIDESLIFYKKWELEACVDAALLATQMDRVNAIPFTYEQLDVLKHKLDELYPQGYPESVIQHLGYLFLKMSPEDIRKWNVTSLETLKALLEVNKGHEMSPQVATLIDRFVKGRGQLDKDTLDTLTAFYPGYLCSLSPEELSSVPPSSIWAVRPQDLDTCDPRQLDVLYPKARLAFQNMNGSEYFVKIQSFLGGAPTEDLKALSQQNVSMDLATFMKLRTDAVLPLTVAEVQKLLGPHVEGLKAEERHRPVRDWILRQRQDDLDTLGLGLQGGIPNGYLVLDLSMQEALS

Row | Binder | ELISA (OD450)
1 | B1 | 1.34 OD450
2 | B2 | 2.72 OD450
3 | B3 | 1.03 OD450
4 | B4 | 1.41 OD450
5 | B5 | 2.75 OD450
6 | B6 | 2.2 OD450
7 | B7 | 1.72 OD450
8 | B8 | 2.38 OD450
9 | B9 | 1.18 OD450
10 | B10 | 1.95 OD450
11 | B11 | 1.98 OD450
12 | B12 | 2.4 OD450
13 | B13 | 2.49 OD450
14 | B14 | 0.938 OD450
15 | B15 | 2.05 OD450

target: T2, MD50 protein; assay: ELISA, antigen coated, TG1 supernatant
T2 construct: range 487-580; also called proximal membrane fragment of mesothelin
T2 sequence (Q13421 495-588): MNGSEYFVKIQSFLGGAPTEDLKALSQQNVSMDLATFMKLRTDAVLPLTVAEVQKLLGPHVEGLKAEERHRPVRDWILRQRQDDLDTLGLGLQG

Row | Binder | ELISA (OD450)
16 | B1 | 1.17 OD450
17 | B2 | 0.512 OD450
18 | B3 | 1.14 OD450
19 | B4 | 1.72 OD450
20 | B5 | 2.09 OD450
21 | B6 | 2.04 OD450
22 | B7 | 1.35 OD450
23 | B8 | 1.73 OD450
24 | B9 | 1.03 OD450
25 | B10 | 0.926 OD450
26 | B11 | 2.07 OD450
27 | B12 | 1.66 OD450
28 | B13 | 1.46 OD450
29 | B14 | 2.05 OD450
30 | B15 | 2.06 OD450

target: T3, MSLN·His protein (human, UniProt Q13421 296-580, limits assumed); assay: SPR (Biacore), antibody captured on protein A, MSLN·His as analyte
T3 construct: Bought protein; also called human MSLN·His antigen; not shown: His tag
T3 sequence (Q13421 other isoform, or with tags, fused parts or gaps limits assumed): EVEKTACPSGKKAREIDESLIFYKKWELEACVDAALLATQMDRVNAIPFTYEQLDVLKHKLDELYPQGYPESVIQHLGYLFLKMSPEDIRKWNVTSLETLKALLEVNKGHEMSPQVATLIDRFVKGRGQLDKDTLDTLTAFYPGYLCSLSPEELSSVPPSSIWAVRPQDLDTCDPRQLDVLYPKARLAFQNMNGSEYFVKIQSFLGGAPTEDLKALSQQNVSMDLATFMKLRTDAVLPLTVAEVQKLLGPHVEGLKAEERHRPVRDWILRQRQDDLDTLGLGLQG
Source text: Referring to the method of humanizing nanoantibodies (J. Biol. Chem. 2009; 284: 3273-3284), M2339 was humanized using the method of CDR region transplantation. In IgBLAST (http://www.ncbi.nlm.nih.gov/igblast/), germline with high homology with M2339 was selected as the template in the database. Biacore was used to detect the affinity of the antibody before and after humanization. The purified antibody was flowed through the sensor chip pre-fixed with protein A, and the antibody was captured by protein A. Then five different concentrations of MSLN·His protein were used as the mobile phase, and the association time and dissociation time were 30 min and 60 min, respectively. The binding rate (ka), dissociation rate (kd), and equilibrium constant (kd) were analyzed using Biacore Evaluation Software 2.0 (GE).

Row | Binder | Kd | koff | kon
31 | B16 | 59.5 nM | 0.00608 s⁻¹ | 102000 M⁻¹ s⁻¹
32 | B17 | 0.361 nM | 1.6e-05 s⁻¹ | 44300 M⁻¹ s⁻¹
33 | B18 | 0.143 nM | 1.2e-05 s⁻¹ | 83800 M⁻¹ s⁻¹
34 | B19 | 0.279 nM | 1.74e-05 s⁻¹ | 62300 M⁻¹ s⁻¹
35 | B20 | 12.2 nM | 0.00102 s⁻¹ | 83800 M⁻¹ s⁻¹
36 | B21 | 37.7 nM | 0.00878 s⁻¹ | 233000 M⁻¹ s⁻¹
37 | B22 | 2.78 nM | 0.000132 s⁻¹ | 47400 M⁻¹ s⁻¹
38 | B23 | 14.9 nM | 0.00119 s⁻¹ | 80000 M⁻¹ s⁻¹
39 | B24 | 0.228 nM | 1.01e-05 s⁻¹ | 44400 M⁻¹ s⁻¹
40 | B25 | 0.142 nM | 9.29e-06 s⁻¹ | 65200 M⁻¹ s⁻¹
41 | B26 | 0.0961 nM | 6.52e-06 s⁻¹ | 67800 M⁻¹ s⁻¹
42 | B27 | 47.4 nM | 0.00824 s⁻¹ | 174000 M⁻¹ s⁻¹
43 | B28 | 0.16 nM | 1.14e-05 s⁻¹ | 71000 M⁻¹ s⁻¹
44 | B29 | 0.274 nM | 1.18e-05 s⁻¹ | 43000 M⁻¹ s⁻¹
45 | B30 | 1.3 nM | 5.18e-05 s⁻¹ | 39800 M⁻¹ s⁻¹
46 | B31 | 0.239 nM | 9.81e-06 s⁻¹ | 41000 M⁻¹ s⁻¹
47 | B32 | 3.98 nM | 0.000156 s⁻¹ | 39300 M⁻¹ s⁻¹

Reference: patent US20240190986A1 (ZHEJIANG NANOMAB TECHNOLOGY CENTER, published 2024)
